Where no end group is shown, it is not given here. [ ]: non-standard residue; d: D form. The star is where a group is joined. Ala(3-Me-diazirin-3-yl) = CC1(C[C@H](N)C(=O)O)N=N1; Hexadecanesulfonyl = CCCCCCCCCCCCCCCCS(=O)(=O)*; 2Nal = N[C@@H](Cc1ccc2ccccc2c1)C(=O)O; Palmitoyl = CCCCCCCCCCCCCCCC(=O)*; Hyp = O=C(O)[C@@H]1C[C@@H](O)CN1; Cit = NC(=O)NCCC[C@H](N)C(=O)O; code z = not defined here; hSer = N[C@@H](CCO)C(=O)O; Nle = CCCC[C@H](N)C(=O)O; Pra = C#CC[C@H](N)C(=O)O; Dap = NC[C@H](N)C(=O)O
Target: CXCR4 receptor (human, UniProt P61073 1-352)
Sequence (P61073 whole entry): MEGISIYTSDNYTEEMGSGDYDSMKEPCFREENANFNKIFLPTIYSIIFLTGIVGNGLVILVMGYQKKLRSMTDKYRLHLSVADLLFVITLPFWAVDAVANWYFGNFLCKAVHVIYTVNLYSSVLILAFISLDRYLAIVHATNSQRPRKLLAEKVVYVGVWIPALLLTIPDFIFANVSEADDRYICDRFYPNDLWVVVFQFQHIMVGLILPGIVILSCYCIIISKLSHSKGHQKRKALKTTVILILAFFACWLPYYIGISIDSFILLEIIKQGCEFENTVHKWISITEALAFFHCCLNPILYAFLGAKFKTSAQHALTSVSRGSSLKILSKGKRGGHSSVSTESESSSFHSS
Assay: cell-based or functional assay

| Binder | % Intrinsic Activity, calcium flux, CEM cells (Flexstation) | EC50 (nM), calcium flux, CEM cells, agonist mode (Flexstation) | EC50 (nM), calcium flux, CEM cells, agonist mode (FLIPR) |
| --- | --- | --- | --- |
| Pal-MGYQKKLRSMTDKYR[Nle] [Compound No. 12 (Pal-MGYQKKLRSMTDKYR(Nle))] | 73.2% | 249 nM |  |
| Pal-GGYQKKLR[dP]WTDKYRL [Compound No. 33 (Pal-GGYQKKLRpWTDKYRL)] | 93% | 109 nM |  |
| Palmitoyl-CGYQKKLRSATDKYRL (not fully specified) [Compound No. 30 (Pal-CGYQKKLRSATDKYRL)] | 95.3% | 144 nM |  |
| Palmitoyl-MGYQKKLRPSMTDKYRL (not fully specified) [Compound No. 8 (Pal-MGYQKKLRPSMTDKYRL)] | 88% | 169 nM |  |
| Palmitoyl-GGYQKKHRSATDKYRL (not fully specified) [Compound No. 38 (Pal-GGYQKKHRSATDKYRL)] | 86.8% | 27 nM |  |
| Pal-MGYQKKLRSMTDKY[Cit]L [Compound No. 14 (Pal-MGYQKKLRSMTDKY(Cit)L)] | 3.61% | 10000 nM |  |
| Palmitoyl-MGYQKKLRSMTDKYRV (not fully specified) [Compound No. 11 (Pal-MGYQKKLRSMTDKYRV)] | 61.7% | 1320 nM |  |
| Palmitoyl-GGYQKKLRTATDKYRL (not fully specified) [Compound No. 41 (Pal-GGYQKKLRTATDKYRL)] | 149% | 106 nM |  |
| Pal-GGYQKKLR[dP][dP]HTDKYRL [Compound No. 32 (Pal-GGYQKKLRppHTDKYRL)] | 91.1% | 73.2 nM |  |
| Pal-GGYQKKLR[Hyp]HTDKYRL [Compound No. 35 (Pal-GGYQKKLR(Hyp)HTDKYRL)] | 89.4% | 45 nM |  |
| Pal-GGYQKKLR[dP][Dap]TDKYRL [Compound No. 34 (Pal-GGYQKKLRp(Dpr)TDKYRL)] | 103% | 89 nM |  |
| Pal-[code z]GYQKKLRS[code z]TDKYRL (not fully specified; printed as Pal-zGYQKKLRSzTDKYRL; reading uncertain) [Compound No. 23 (Pal-zGYQKKLRSzTDKYRL)] | 87.2% | 83 nM |  |
| Pal-[Pra]GYQKKLRSMTDKYRL [Compound No. 24 (Pal-(Pra)GYQKKLRSMTDKYRL)] | 76.6% | 267 nM |  |
| {3‑(dodecyloxy)propanoate}-GGYQKKLRSATDKYRL (not fully specified (C-terminus)) [Compound No. 31 (3-(dodecyloxy)propanoate-GGYQKKLRSATDKYRL)] | 84.2% | 154 nM |  |
| Palmitoyl-MGYQKKLRSMTDKYKL (not fully specified) [Compound No. 13 (Pal-MGYQKKLRSMTDKYKL)] | 61.4% | 194 nM |  |
| Pal-GGYQKKLR[dP][Hyp]TDKYRL [Compound No. 36 (Pal-GGYQKKLRp(Hyp)TDKYRL)] | 55.2% | 603 nM |  |
| Pal-MGYQKKLRSMTDK[2Nal]RL [Compound No. 16 (Pal-MGYQKKLRSMTDK(Nal)RL)] | 34.4% | 3020 nM |  |

| Binder | % Intrinsic Activity, calcium flux, CEM cells (Flexstation) | EC50 (nM), calcium flux, CEM cells, agonist mode (Flexstation) | EC50 (nM), calcium flux, CEM cells, agonist mode (FLIPR) |
| --- | --- | --- | --- |
| Pal-GGYQKKLR[dP]ATDKFRL [Compound No. 29 (Pal-GGYQKKLRpATDKFRL)] | 88.9% | 26.3 nM |  |
| Palmitoyl-MGYQKKLRSMTDKFRL (not fully specified) [Compound No. 15 (Pal-MGYQKKLRSMTDKFRL)] | 81.5% | 135 nM |  |
| Pal-GGYQKKLR[dP]ATDKYRL [Compound No. 27 (Pal-GGYQKKLRpATDKYRL)] | 111% | 85.9 nM |  |
| Palmitoyl-MGYQKKLRSGTDKYRL (not fully specified) [Compound No. 19 (Pal-MGYQKKLRSGTDKYRL)] | 101% | 370 nM |  |
| Palmitoyl-MGYQKKLPRSMTDKYRL (not fully specified) [Compound No. 7 (Pal-MGYQKKLPRSMTDKYRL)] | 100% | 153 nM |  |
| Palmitoyl-GGYQKKLRSATDKYRL (not fully specified (C-terminus)) [Compound No. 25 (Pal-GGYQKKLRSATDKYRL)] | 89.4% | 36.8 nM |  |
| Pal-GGYQKKLR[dP]HTDKYRL [Compound No. 26 (Pal-GGYQKKLRpHTDKYRL)] | 91.2% | 55.2 nM |  |
| Pal-MGYQKKLRS[Nle]TDKYRL [Compound No. 17 (Pal-MGYQKKLRS(Nle)TDKYRL)] | 62.7% | 208 nM |  |
| Pal-GYQKKLRS[Nle]TDKYRI [Compound No. 20 (Pal-GYQKKLRS(Nle)TDKYRI)] | 62.5% | 232 nM |  |
| Pal-GGYQKK[Ala(3-Me-diazirin-3-yl)]RSATDKYRL [Compound No. 37 (Pal-GGYQKK(photoLeu)RSATDKYRL)] | 85.7% | 71.2 nM |  |
| Palmitoyl-MGYQKKLRSHTDKYRL (not fully specified) [Compound No. 18 (Pal-MGYQKKLRSHTDKYRL)] | 93.4% | 110 nM |  |
| Pal-[hSer]GYQKKLRS[hSer]TDKYRL [Compound No. 22 (Pal-xGYQKKLRSxTDKYRL)] | 77.7% | 125 nM |  |
| Hexadecanesulfonyl-GGYQKKLR[dP]HTDKYRL-NH2 (also: table lists the lipid as 'Pal') [Compound No. 46 (CH3(CH2)15SO2-GGYQKKLRpHTDKYRL-amide)] |  |  | 12.5 nM |
| Palmitoyl-MGYQKPLRSMTDKYRL [Compound No. 6 (Pal-MGYQKPLRSMTDKYRL)] | 90.2% | 161 nM |  |
| Palmitoyl-GGYQKKLRSATDKYRLH (not fully specified) [Compound No. 40 (Pal-GGYQKKLRSATDKYRLH)] | 78.7% | 297 nM |  |
| Pal-GGYQKK[dP]R[dP]ATDKYRL [Compound No. 28 (Pal-GGYQKKpRpATDKYRL)] | 107% | 25 nM |  |
| Pal-MGYQKKLRS[dP]MTDKYRL [Compound No. 9 (Pal-MGYQKKLRSpMTDKYRL)] | 77.9% | 123 nM |  |
